Test results reported in the supplement of paper PMC10567573.

B1: SNX8 (parent)
chain: VVLKLFLSFSGSDVQNKLKESAQC
B2: ZBED2 (parent)
chain: RAGHHPNQYATCRLCGRQVSRGPG

Variants of: B1
Assay: protein stability index of a GFP-peptide fusion (GPS, HEK-293T) (PSI 1-6); higher = more stable
Settings: c terminus: a fixed tail appended
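Note: lentivirally expressed fusions sorted by FACS into six bins by GFP to DsRed ratio, PSI derived from sequencing read proportions per bin multiplied by bin number.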

Protein stability index: each site, then its substitutions
Q23: Y 2.52; D 2.27; R 2.8; A 3.04; S 1.46; K 2.59; T 2.48; I 3.23; L 3.31; C 3.1; F 1.71
L18: F 2.86; M 4.11; G 4.32; R 1.5; I 2.58; Q 4.56; T 2.13; W 1.93
A22: C 2.05; T 1.76; E 3.99; Y 1.93; D 4.82; F 3.23; G 3.13; W 3.87; M 3.48; K 2.18
S21: Y 2.66; V 2.46; K 2.25; N 2.55; F 1.88; W 2.66; D 1.56; M 2.03
C24: H 2.17; Y 3.1; S 3.35; P 3.78; N 2.99; L 5.49; W 1.84; V 2.91; F 4.02; D 1.9
E20: N 3.6; D 3.55; F 3.18; C 3.61; L 1.89; Y 3.73; A 2.89; M 2.13; Q 2.37; S 3.97
K19: P 3.75; Q 5.1; N 2.76; I 2.23; M 2.37; A 4.92; G 3.41; R 2.25; F 2.79

Variants of: B2
Assay: as above
Settings: c terminus: a fixed tail appended

Protein stability index of substitutions, site by site:
Q8: F 2.11; I 1.57; P 2.03; N 1.68; H 1.9; G 1.86; D 3.31; Y 1.13
R17: S 1.79; E 1.93; Q 1.3; I 1.86; F 1.96; A 1.69; T 2.26; H 1.29; L 2.64
N7: F 1.08; S 1.88; A 1.78; E 2.52; P 1.56; M 2.04; K 1.81
G22: W 1.46; F 1.55; P 2.57; I 1.9; C 3.07; E 2.08; L 2.48; K 2.68; M 1.57; N 2.29; H 2.12; T 2.24; V 1.77; D 1.64
T11: N 1.97; L 1.7; F 3.34; R 2.01; E 2.84; K 2.56; M 3.7; S 1.5
R1: Q 1.5; N 2.85; L 1.78; H 2.13; E 2.53; I 2.13; K 1.68; C 3.55; S 1.86; T 2.07
A2: Y 2.04; K 1.54; I 2.15; S 2.04; F 2.36; D 2.08; P 1.73; L 2.19; G 2.1; H 1.78; M 1.97; E 2.33; N 2.11; Q 1.4
Q18: H 2.59; P 2.69; S 1.23; F 2.67; W 1.27; N 2.12; I 2.23; E 1; A 2.44; G 2.68; Y 2.51
L14: Q 1.15; K 2.66; P 1.82; S 1.57; V 1.07; N 1.25; T 1.49; A 1.78; W 2.12; R 2.39; C 2.79; I 1.48
P6: S 1.72; D 2.02; R 1.83; H 2.31; G 2.54; N 1.72; F 1.33; I 1.45
R21: E 2.45; K 1.69; T 1.78; H 2.04; Q 2.25; F 1.78; C 2.54
H4: L 1.78; I 3.21; V 2.31; C 1.84; G 2.21; R 1.12; T 2.78; D 2.09; E 2.16; N 3.52
G24: C 1.53; L 2.07; N 2.42; S 1.56; K 2.03; R 1.8; F 1.17; H 2.15; A 1.24; E 2.35; I 2.11; P 1.71; T 2.17; M 2.17
G16: D 1.78; T 1.41; Q 1.81; Y 3.58; S 2.2; C 1.25; K 1.51; E 2.46; P 2.41; N 2.51
H5: A 2.48; K 2.51; M 2.41; L 1.86; Y 2.37; D 3.27; Q 2.16; T 1.37; G 1.68; F 1.89; N 2.5; C 1.93; I 2.27
Y9: N 2.33; A 2.33; P 3.34; I 2.06; S 2.72
C15: T 3.44; I 1.95; V 2.2; L 1.85; K 3.16; F 1.7; D 3.55; Y 1.42; P 3.18; G 2.6; H 1.93; R 2.83
G3: S 1.57; M 2.52; V 1.64; I 1.55; T 2.19; A 2.29; E 2.06; W 3.31; D 2.58; C 4.01; H 1.25; L 2.27; R 2.09; K 2.66
R13: F 1.36; M 2.24; D 1.96; Y 2.42; T 2.4; S 2.79; P 3.18; V 2.39; H 1.59; K 2.1
A10: M 1.8; N 1.64; C 2.67; L 2.12; E 1.6; V 1.43; T 2.78; G 2.12; I 1.43; H 2.02; Y 1.34; W 1.76; K 1.67; D 1.79; R 1.43; S 2.2
P23: D 2.85; T 2.2; H 2.54; V 1.84; R 2.8; M 1.77; Y 1.54; Q 2.11; C 2.96; F 1.54; S 2.05; I 2.27; N 1.88
S20: E 2.88; H 1.76; T 1.91; I 1.48; G 1.78; N 1.79; K 1.88; D 1.93; L 2.29; W 1.59; M 2.4; V 2.08; R 2.26; P 2.53; Q 2.21; C 2.49
V19: G 2.53; H 3.82; S 1.65; Q 2.48; C 3.7; T 2.22; K 3.86; Y 2.24; E 1.7; F 2.08; P 1.98; M 1.48; I 1.37
C12: Q 3.12; H 2.49; S 3.52; T 3.19; G 3.16; A 3.19; V 2.49; I 2.64; P 2.98; M 2.28; D 2.88; R 3.2; L 2.27; F 1.81
